Earlier results in publication PMC6518430.

Tests used:
IL-12Rβ1 (Homo sapiens) = IL-12Rβ1 (Homo sapiens) (UniProt P42701)
IL-23R (Homo sapiens) = IL-23R (Homo sapiens) (UniProt Q5VWK5)
IL-23R (Homo sapiens), sequence (Q5VWK5 24-355): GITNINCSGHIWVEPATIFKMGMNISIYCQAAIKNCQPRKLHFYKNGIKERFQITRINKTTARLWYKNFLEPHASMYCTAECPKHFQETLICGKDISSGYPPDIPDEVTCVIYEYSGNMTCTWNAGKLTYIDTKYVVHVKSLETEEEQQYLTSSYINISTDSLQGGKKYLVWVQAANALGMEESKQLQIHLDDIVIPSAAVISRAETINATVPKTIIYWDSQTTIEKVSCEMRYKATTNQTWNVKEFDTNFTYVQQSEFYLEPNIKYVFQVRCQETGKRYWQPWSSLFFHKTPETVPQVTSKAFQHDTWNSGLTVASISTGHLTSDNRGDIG

IL-23, sequence (Q9NPF7 20-189): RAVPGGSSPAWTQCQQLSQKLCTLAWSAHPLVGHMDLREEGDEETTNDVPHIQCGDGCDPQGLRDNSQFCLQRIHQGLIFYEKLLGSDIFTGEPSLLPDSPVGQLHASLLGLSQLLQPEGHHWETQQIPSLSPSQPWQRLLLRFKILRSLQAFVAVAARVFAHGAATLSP
IL-23, sequence (P29460 23-328, further chain): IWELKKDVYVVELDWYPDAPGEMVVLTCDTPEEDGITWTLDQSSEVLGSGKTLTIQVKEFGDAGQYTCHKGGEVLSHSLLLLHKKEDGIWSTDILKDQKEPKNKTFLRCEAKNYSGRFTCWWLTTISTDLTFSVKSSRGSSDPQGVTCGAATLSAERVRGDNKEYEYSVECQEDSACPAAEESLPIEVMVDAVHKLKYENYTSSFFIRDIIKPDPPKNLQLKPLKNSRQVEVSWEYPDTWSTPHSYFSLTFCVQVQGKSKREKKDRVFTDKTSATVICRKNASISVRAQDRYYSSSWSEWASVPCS

- Kd (IL-12Rβ1 (Homo sapiens)): 2000 nM
- Kd (IL-23R (Homo sapiens)): 44 nM
Substance: IL-23 (from UniProt Q9NPF7)
